Reference: patent publication US20210355194A1 (published 2021)
Numbering of substitutions follows the chain as printed. Like-named read-outs stand apart in the source and are kept apart here.

B1: 10-27 (antibody, V domains shown)
VH: EVQLVESGGGLVQPGGSLRLSCAASGRTFRRYSMGWFRQAPGKEREFVASITPGGNTNYADSVKGRFTISADNSKNTAYLQMNSLKPEDTAVYYCASRRRWLTPYIFWGQGTLVTVSS
B2: 10-20 (antibody, V domains shown)
VH: EVQLVESGGGLVQPGGSLRLSCAASGRTIRTMGWFRQAPGKEREFVATINSRGITNYADSVKGRFTISADNSKNTAYLQMNSLKPEDTAVYYCTTERDGLLWFRELFRPSWGQGTLVTVSS
B3: 10-28 (antibody, V domains shown)
VH: EVQLVESGGGLVQPGGSLRLSCAASGSIFSIGMGWFRQAPGKEREFVARIWWRSGATYYADSVKGRFTISADNSKNTAYLQMNSLKPEDTAVYYCAAISIFGRLKWGQGTLVTVSS
B4: 2-6 (antibody, V domains shown)
VH: EVQLLESGGGLVQPGGSLRLSCAASGFTFSNYPMNWVRQAPGKGLEWVSTISGSGGNTFYADSVKGRFTISRDNSKNTLYLQMNSLRAEDTAVYYCVRHDEYSFDYWGQGTLVTVSS
VL: DIQMTQSPSSLSASVGDRVTITCRASQSIDTYLNWYQQKPGKAPKLLIYAASALASGVPSRFSGSGSGTDFTLTISSLQPEDFATYYCQQSYSAPPYTFGQGTKVEIK
B5: 2-5 (antibody, V domains shown)
VH: EVQLLESGGGLVQPGGSLRLSCAASGFTFSDFAMAWVRQAPGKGLEWVSAISGSGDITYYADSVKGRFTISRDNSKNTLYLQMNSLRAEDTAVYYCAREADGLHSPWHFDLWGQGTLVTVSS
VL: B4 VL with D30H
B6: 9-11 (antibody, V domains shown)
VH: EVQLVESGGGLVQPGGSLRLSCAASGRTFGRRAMGWFRQAPGKEREFVAGISRGGGTNYADSVKGRFTISADNSKNTAYLQMNSLKPEDTAVYYCAAKGIWDYLGRRDFGDWGQGTLVTVSS
B7: 2-2 (antibody, V domains shown)
VH: EVQLLESGGGLVQPGGSLRLSCAASGFTFSRHAMNWVRQAPGKGLEWVSGISGSGDETYYADSVKGRFTISRDNSKNTLYLQMNSLRAEDTAVYYCARDLPASYYDSSGYYWHNGMDVWGQGTLVTVSS
VL: DIQMTQSPSSLSASVGDRVTITCRASQTINTYLNWYQQKPGKAPKLLIYSASTLQSGVPSRFSGSGSGTDFTLTISSLQPEDFATYYCQQSYSTFTFGQGTKVEIK
B8: 3-7 (antibody, V domains shown)
VH: EVQLLESGGGLVQPGGSLRLSCAASGFMFGNYAMSWVRQAPGKGLEWVAAISGSGGSTYYADSVKGRFTISRDNSKNTLYLQMNSLRAEDTAVYYCAKDRGYSSSWYGGFDYWGQGTLVTVSS
VL: DIQMTQSPSSLSASVGDRVTITCRASQSIGRYLNWYQQKPGKAPKLLIYASSSLQSGVPSRFSGSGSGTDFTLTISSLQPEDFATYYCQQSYSLPRTFGQGTKVEIK
B9: 2-9 (antibody, V domains shown)
VH: EVQLLESGGGLVQPGGSLRLSCAASGFTFPRYAMSWVRQAPGKGLEWVSTISGSGSTTYYADSVKGRFTISRDNSKNTLYLQMNSLRAEDTAVYYCARLIDAFDIWGQGTLVTVSS
VL: B8 VL with S28R, R31T, S51A, S53N, Q55E, S56G, S91N, L94T, P95T, R96W
B10: ACE2 variant antibody 4-49 (VHH)
VHH: EVQLVESGGGLVQPGGSLRLSCAASGRTFGDYIMGWFRQAPGKERESVAAINWSAGYTAYADSVKGRFTISADNSKNTAYLQMNSLKPEDTAVYYCARASPNTGWHFDHWGQGTLVTVSS

Tests used:
[1] = molecular target: T1, SARS-CoV-2 membrane protein (SARS-CoV-2, UniProt P0DTC5 1-222); test: SPR
[2] = molecular target: T1, SARS-CoV-2 membrane protein; test: SPR; remark: listed apart in the source
[3] = molecular target: T1, SARS-CoV-2 membrane protein; test: SPR; remark: listed apart in the source
[4] = molecular target: T2, SARS-CoV-2 S protein trimer (SARS-CoV-2, UniProt P0DTC2 14-1208); test: SPR
SARS-CoV-2 S1 protein [5] = molecular target: T3, SARS-CoV-2 S1 protein (SARS-CoV-2, UniProt P0DTC2 16-685); test: SPR
[6] = molecular target: T2, SARS-CoV-2 S protein trimer; test: SPR; remark: listed apart in the source
SARS-CoV-2 S1 protein [7] = molecular target: T3, SARS-CoV-2 S1 protein; test: SPR; remark: listed apart in the source
SARS-CoV-2 S1 RBD = SARS-CoV-2 S1 RBD (SARS-CoV-2, UniProt P0DTC2 319-537); test: competition
human ACE2 = human ACE2 (human, UniProt Q9BYF1 18-740); test: SPR
Chain of human ACE2 (Q9BYF1 18-740): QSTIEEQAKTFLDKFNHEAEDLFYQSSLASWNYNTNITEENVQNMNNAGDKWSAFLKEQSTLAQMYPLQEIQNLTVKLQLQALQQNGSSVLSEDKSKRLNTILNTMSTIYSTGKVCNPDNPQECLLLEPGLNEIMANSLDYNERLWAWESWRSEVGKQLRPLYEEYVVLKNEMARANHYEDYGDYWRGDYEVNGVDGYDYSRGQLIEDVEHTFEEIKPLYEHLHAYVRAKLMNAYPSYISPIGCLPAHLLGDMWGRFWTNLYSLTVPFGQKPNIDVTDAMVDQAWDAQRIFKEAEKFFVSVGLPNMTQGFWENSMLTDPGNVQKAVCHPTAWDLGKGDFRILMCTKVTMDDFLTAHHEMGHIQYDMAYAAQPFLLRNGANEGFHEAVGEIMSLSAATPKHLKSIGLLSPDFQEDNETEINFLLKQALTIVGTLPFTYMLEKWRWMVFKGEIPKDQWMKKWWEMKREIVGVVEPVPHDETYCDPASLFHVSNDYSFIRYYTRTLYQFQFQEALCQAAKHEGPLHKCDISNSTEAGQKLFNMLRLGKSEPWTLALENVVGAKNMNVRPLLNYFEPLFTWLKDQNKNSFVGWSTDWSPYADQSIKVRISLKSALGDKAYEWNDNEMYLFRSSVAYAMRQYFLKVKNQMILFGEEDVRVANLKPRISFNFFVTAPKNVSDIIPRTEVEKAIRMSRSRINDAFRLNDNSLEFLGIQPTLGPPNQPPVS

ACE2 = ACE2 (human, UniProt Q9BYF1 18-740); test: SPR
Chain of ACE2 (Q9BYF1 18-740): as above

Binder | Kd [1] | Kd [6] | Kd (SARS-CoV-2 S1 protein [7]) | IC50 (SARS-CoV-2 S1 RBD) | further results
B1 | 5.7 nM |  |  |  | 
B2 |  |  |  |  | Kd [2]: 66 nM
B3 | 5.6 nM |  |  |  | Kd [3]: 5.6 nM
B4 |  | 0.036 nM | 7.2 nM | 0.754 nM | Kd [4]: < 0.036 nM; Kd (SARS-CoV-2 S1 protein [5]): 7.2 nM
B5 |  | 1.7 nM | 0.223 nM | 3.83 nM | 
B6 | 0.593 nM |  |  |  | 
B7 |  | 0.143 nM | 74 nM | 1.26 nM | 
B8 |  |  |  |  | Kd (human ACE2): 0.326 nM
B9 |  |  |  | 4.69 nM | 
B10 |  |  |  |  | Kd (ACE2): 2.3 nM
